Measurements reported in article PMC13041742, “Nonlinear stiffness of NompC gating spring and its implication in mechanotransduction” (Science Advances, 2026).

Target: the molecule itself
Assay: negative-stain EM with 2D class averaging; purified NompC-Δ12; raw micrographs and 2D class averages

B1: NompC-Δ12 (complex, Drosophila, UniProt E0A9E1 1-1732, looked up)
chain: MSQPRGGRGGGRGGGVGRKTPSSLTGPPDESATPSERATPASKADSDPKDDSSSNGDKKDMDLFPAPKPPSAGASIRDTANKVLGLAMKSEWTPIEAELKKLEKYVANVGEDGNHIPLAGVHDMNTGETPLHMACRACHPDIVRHLIETVKEKHGPDKATTYINSVNEDGATALHYTCQITKEEVKIPESDKQIVRMLLENGADVTLQTKTALETAFHYCAVAGNNDVLMEMISHMNPTDIQKAMNRQSSVGWTPLLIACHRGHMELVNNLLANHARVDVFDTEGRSALHLAAERGYLHVCDALLTNKAFINSKSRVGRTALHLAAMNGFTHLVKFLIKDHNAVIDILTLRKQTPLHLAAASGQMEVCQLLLELGANIDATDDLGQKPIHVAAQNNYSEVAKLFLQQHPSLVNATSKDGNTCAHIAAMQGSVKVIEELMKFDRSGVISARNKLTDATPLQLAAEGGHADVVKALVRAGASCTEENKAGFTAVHLAAQNGHGQVLDVLKSTNSLRINSKKLGLTPLHVAAYYGQADTVRELLTSVPATVKSETPTGQSLFGDLGTESGMTPLHLAAFSGNENVVRLLLNSAGVQVDAATIENGYNPLHLACFGGHMSVVGLLLSRSAELLQSQDRNGRTGLHIAAMHGHIQMVEILLGQGAEINATDRNGWTPLHCAAKAGHLEVVKLLCEAGASPKSETNYGCAAIWFAASEGHNEVLRYLMNKEHDTYGLMEDKRFVYNLMVVSKNHNNKPIQEFVLVSPAPVDTAAKLSNIYIVLSTKEKERAKDLVAAGKQCEAMATELLALAAGSDSAGKILQATDKRNVEFLDVLIENEQKEVIAHTVVQRYLQELWHGSLTWASWKILLLLVAFIVCPPVWIGFTFPMGHKFNKVPIIKFMSYLTSHIYLMIHLSIVGITPIYPVLRLSLVPYWYEVGLLIWLSGLLLFELTNPSDKSGLGSIKVLVLLLGMAGVGVHVSAFLFVSKEYWPTLVYCRNQCFALAFLLACVQILDFLSFHHLFGPWAIIIGDLLKDLARFLAVLAIFVFGFSMHIVALNQSFANFSPEDLRSFEKKNRNRGYFSDVRMHPINSFELLFFAVFGQTTTEQTQVDKIKNVATPTQPYWVEYLFKIVFGIYMLVSVVVLINLLIAMMSDTYQRIQAQSDIEWKFGLSKLIRNMHRTTTAPSPLNLVTTWFMWIVEKVKARMKKKKRPSLVQMMGIRQASPRTKAGAKWLSKIKKDSVALSQVHLSPLGSQASFSQANQNRIENVADWEAIAKKYRALVGDEEGGSLKDSDAESGSQEGSGGQQPPAQVGRRAIKATLADTTK
notes: NompC (no mechanoreceptor potential C), Drosophila, NP_001245891.1, lacking the N-terminal 12 ankyrin repeats (amino acids 126 to 533); Full-length NompC with an internal deletion of residues 126-533; also called truncated NompC-Δ12; NompC complex with the N-terminal 12 ARs removed; not shown: SpyTag, N-terminal, kept; enhanced green fluorescent protein (after a 3C cleavage site), C-terminal, …
- stoichiometry N: 4
